Several values for one entry are separate records, joined by “and”; a condition that tells them apart may be missing. Equal entries are not always repeated.
What was measured:
Assay in all cases: cell-based or functional assay
[1] = molecular target: human voltage-gated sodium channel Nav1.3 (human) (UniProt Q9NY46)
[2] = molecular target: human voltage-gated sodium channel Nav1.4 (human) (UniProt P35499)
[3] = molecular target: human voltage-gated sodium channel Nav1.5 (human) (UniProt Q14524)
[4] = molecular target: human voltage-gated sodium channel Nav1.7 (human) (UniProt Q15858)
[5] = molecular target: TTX-resistant Nav channels in mouse DRG neurons
[6] = molecular target: TTX-sensitive Nav channels in mouse DRG neurons
[7] = molecular target: human Nav1.5 voltage-gated sodium channel (human) (UniProt Q14524)
[8] = molecular target: human Nav1.7 voltage-gated sodium channel (human) (UniProt Q15858)
[9] = molecular target: human Nav1.8 voltage-gated sodium channel (human) (UniProt Q9Y5Y9)
[10] = molecular target: hNav1.7 channels in HEK293 cell (human) (UniProt Q15858)

human voltage-gated sodium channel Nav1.5 (human), sequence (Q14524 whole entry): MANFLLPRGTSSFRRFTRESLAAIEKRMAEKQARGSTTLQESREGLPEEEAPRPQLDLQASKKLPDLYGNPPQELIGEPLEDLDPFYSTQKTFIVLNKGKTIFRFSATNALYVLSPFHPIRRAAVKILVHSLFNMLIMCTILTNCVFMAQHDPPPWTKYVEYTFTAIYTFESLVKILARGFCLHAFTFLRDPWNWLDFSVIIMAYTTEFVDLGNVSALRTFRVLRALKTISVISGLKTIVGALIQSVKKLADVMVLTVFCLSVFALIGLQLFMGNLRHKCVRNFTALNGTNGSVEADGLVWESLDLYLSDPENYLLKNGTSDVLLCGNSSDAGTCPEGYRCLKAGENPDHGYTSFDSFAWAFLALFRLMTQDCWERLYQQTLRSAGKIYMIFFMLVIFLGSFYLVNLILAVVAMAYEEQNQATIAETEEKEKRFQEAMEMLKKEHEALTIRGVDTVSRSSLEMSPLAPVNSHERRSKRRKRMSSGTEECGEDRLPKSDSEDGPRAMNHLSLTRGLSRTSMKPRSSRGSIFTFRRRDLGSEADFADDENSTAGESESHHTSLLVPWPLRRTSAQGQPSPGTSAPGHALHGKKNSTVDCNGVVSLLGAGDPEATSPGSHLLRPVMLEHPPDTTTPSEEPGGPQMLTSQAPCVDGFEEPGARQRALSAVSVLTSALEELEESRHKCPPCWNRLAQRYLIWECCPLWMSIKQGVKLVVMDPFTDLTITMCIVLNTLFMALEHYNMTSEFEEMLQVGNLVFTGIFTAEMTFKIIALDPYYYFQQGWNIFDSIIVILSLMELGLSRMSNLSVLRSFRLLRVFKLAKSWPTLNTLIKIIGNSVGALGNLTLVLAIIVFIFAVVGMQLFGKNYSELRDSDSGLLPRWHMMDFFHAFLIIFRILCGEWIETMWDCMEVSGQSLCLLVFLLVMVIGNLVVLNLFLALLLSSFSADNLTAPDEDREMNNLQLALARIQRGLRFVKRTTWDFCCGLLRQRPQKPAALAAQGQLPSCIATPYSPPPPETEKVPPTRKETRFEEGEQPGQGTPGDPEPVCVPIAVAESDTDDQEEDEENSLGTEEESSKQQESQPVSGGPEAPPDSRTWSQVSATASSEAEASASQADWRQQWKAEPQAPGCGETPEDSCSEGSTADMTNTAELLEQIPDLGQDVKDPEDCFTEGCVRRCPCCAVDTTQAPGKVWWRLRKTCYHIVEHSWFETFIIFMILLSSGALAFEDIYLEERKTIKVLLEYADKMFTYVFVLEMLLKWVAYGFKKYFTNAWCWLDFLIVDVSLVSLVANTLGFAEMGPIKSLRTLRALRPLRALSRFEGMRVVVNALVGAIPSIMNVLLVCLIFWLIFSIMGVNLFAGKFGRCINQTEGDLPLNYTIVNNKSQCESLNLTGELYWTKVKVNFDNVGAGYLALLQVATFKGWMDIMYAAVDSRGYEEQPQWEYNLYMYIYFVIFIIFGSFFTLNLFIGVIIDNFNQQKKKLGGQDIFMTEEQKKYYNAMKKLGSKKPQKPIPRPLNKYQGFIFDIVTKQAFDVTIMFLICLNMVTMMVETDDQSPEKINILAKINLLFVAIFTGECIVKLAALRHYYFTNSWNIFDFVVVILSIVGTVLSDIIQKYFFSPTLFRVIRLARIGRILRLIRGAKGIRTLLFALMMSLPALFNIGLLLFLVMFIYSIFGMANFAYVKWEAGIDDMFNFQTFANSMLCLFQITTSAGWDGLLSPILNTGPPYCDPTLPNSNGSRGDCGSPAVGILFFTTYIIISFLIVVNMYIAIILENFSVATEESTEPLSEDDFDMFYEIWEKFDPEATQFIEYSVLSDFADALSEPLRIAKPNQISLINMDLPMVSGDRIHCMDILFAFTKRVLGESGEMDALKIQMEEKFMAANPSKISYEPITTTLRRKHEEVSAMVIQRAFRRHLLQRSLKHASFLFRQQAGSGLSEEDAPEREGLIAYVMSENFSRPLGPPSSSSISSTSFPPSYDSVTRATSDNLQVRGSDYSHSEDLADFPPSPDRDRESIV
human voltage-gated sodium channel Nav1.4 (human), sequence (P35499 whole entry): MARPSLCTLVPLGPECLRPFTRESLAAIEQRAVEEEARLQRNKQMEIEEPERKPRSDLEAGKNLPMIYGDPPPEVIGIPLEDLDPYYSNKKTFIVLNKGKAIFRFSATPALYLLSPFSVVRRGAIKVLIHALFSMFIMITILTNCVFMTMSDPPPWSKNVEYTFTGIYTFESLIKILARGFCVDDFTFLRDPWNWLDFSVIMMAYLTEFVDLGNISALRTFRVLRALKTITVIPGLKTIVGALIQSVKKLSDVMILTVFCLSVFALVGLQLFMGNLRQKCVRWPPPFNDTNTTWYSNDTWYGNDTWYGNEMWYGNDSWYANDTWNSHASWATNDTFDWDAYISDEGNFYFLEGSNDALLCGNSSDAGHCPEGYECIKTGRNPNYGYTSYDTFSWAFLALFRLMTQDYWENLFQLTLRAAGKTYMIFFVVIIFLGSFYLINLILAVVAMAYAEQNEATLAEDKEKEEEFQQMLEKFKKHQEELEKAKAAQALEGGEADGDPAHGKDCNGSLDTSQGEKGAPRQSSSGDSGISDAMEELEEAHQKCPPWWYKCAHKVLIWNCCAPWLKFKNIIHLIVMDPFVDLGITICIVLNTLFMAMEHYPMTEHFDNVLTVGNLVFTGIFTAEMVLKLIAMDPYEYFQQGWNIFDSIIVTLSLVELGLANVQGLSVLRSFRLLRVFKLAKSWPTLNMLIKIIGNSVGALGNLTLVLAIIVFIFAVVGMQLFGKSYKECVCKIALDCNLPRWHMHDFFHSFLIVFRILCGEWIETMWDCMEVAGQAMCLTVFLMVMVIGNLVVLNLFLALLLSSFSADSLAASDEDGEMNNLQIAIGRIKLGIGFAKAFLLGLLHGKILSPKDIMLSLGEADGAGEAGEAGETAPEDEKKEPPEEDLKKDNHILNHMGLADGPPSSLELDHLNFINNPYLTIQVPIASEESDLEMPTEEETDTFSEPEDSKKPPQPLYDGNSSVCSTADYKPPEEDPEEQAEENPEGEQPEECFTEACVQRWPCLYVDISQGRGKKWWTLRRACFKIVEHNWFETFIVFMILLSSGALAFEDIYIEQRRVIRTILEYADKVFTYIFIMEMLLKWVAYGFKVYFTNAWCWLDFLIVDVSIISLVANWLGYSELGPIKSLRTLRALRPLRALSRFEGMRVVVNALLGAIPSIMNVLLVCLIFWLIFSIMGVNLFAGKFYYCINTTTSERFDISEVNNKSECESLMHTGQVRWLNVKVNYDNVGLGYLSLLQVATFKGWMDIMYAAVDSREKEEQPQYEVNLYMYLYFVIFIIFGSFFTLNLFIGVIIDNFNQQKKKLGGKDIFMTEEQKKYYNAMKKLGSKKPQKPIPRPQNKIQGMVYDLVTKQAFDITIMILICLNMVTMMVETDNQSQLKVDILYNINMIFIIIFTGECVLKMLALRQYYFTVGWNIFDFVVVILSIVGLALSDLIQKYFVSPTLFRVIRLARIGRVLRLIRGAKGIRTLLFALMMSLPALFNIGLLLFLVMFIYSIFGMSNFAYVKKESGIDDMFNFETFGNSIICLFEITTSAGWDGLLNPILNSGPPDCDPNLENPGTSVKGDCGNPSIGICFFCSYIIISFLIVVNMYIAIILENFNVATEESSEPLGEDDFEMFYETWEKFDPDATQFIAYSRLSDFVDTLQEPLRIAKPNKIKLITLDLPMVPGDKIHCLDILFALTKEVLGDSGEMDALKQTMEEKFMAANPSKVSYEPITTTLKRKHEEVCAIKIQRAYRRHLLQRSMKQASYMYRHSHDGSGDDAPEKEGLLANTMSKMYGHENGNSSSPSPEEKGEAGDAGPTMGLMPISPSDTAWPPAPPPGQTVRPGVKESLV

Row | Substance | IC50 (IonWorks Quattro) [1] | IC50 (IonWorks Quattro) [2] | IC50 (IonWorks Quattro) [3] | IC50 (IonWorks Quattro) [4] | further results
1 | JzTx-45 (peptide) | 1800 nM | 2400 nM | > 5000 nM | 84 nM | –
2 | JzTx-46 (peptide) | 5000 nM | > 5000 nM | > 5000 nM | 330 nM | –
3 | JzTx-V(1-29) (peptide) | 80 nM and 100 nM | – | 3000 nM and 3500 nM | 5 nM and 6 nM | WCPC Mean IC50, fully non-inactivated [5]: > 1000 nM; WCPC Mean IC50, partially inactivated [5]: > 1000 nM; WCPC Mean IC50, fully non-inactivated [6]: 75 nM; WCPC Mean IC50, partially inactivated [6]: 18 nM; WCPC Mean IC50, fully non-inactivated [7]: 882 nM; WCPC Mean IC50, partially inactivated [7]: 426 nM; WCPC Mean IC50, fully non-inactivated [8]: 0.141 nM; WCPC Mean IC50, partially inactivated [8]: 0.162 nM; WCPC Mean IC50, fully non-inactivated [9]: 810 nM; WCPC Mean IC50, partially inactivated [9]: 530 nM; IC50, IonWorks Quattro electrophysiology [2]: 0.2 µM; IC50, IonWorks Quattro electrophysiology [3]: > 7 µM; IC50, IonWorks Quattro electrophysiology [4]: 0.04 µM
4 | JzTx-V(1-29)-FreeAcid (peptide) | 780 nM | 610 nM | > 5000 nM | 170 nM | PX hNav1.7 Tonic IC50 [4]: 13.1 nM
5 | [Phe6,Atz(2 kDa EtO-PEG*-[Phe6,Atz13*]GpTx-1(1-34)1)13]GpTx-1(1-34) | – | – | – | – | Nav1.7 WCPC IC50 [10]: 0.58 nM

Reference: US20160024159A1
